# T1: subunit 1 of the type I interferon receptor (IFNAR1), in patients (human, UniProt P17181)
# T1 sequence: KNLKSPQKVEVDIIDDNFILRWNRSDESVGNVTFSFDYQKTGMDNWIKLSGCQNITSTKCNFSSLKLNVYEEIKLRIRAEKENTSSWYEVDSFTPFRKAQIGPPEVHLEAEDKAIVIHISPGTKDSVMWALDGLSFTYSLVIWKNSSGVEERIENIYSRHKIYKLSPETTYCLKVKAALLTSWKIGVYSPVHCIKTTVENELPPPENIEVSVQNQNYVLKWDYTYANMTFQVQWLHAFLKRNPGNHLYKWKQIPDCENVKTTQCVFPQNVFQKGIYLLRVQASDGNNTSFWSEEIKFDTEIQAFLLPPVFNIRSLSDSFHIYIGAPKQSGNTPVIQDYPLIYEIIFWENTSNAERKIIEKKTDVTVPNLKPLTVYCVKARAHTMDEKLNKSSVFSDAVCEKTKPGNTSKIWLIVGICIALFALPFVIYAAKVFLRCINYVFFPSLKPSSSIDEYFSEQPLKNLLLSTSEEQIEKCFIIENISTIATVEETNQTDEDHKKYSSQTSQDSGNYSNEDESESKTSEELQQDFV
# B1: Anifrolumab (antibody, V domains shown)
# VH: EVQLVQSGAEVKKPGESLKISCKGSGYIFTNYWIAWVRQMPGKGLESMGIIYPGDSDIRYSPSFQGQVTISADKSITTAYLQWSSLKASDTAMYYCARHDIEGFDYWGRGTLVTVSS
# VL: EIVLTQSPGTLSLSPGERATLSCRASQSVSSSFFAWYQQKPGQAPRLLIYGASSRATGIPDRLSGSGSGTDFTLTITRLEPEDFAVYYCQQYDSSAITFGQGTRLEIKR
# How the values were obtained:
# [1] = target: T1, subunit 1 of the type I interferon …; test: cell-based or functional assay
# [2] = target: T1, subunit 1 of the type I interferon …; test: cell-based or functional assay; remark: listed apart in the source
binder,measurement,setting,value
B1,IC80: approximate anifrolumab concentration required to produce 80% of the maximum inhibition of the 21-IFNGS expression relative to baseline (PK/PD model estimate),[1],3.88 µg/mL
same,IC50 (nM): anifrolumab concentration required to produce 50% of the maximum inhibition of the 21-IFNGS expression relative to baseline (PK/PD model estimate from TULIP-1 and TULIP-2 data),[2],6.56 nM
